The supplement of paper PMC10567573

B1: SERPINB5 (parent)
chain: FPESETKECPFRVNKVCGAACSSK
B2: TRIM43 (parent)
chain: YQEIFQQLQRSWVKMDQKSKHLKE

Variants of: B1
Test: protein stability index of a GFP-peptide fusion (GPS, HEK-293T) (PSI 1-6); higher = more stable
Conditions: c terminus: a fixed tail appended
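Further: lentivirally expressed fusions sorted by FACS into six bins by GFP to DsRed ratio, PSI derived from sequencing read proportions per bin multiplied by bin number.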

Protein stability index, by site and new letter:
A19: S 2.92, E 2.5
C9: R 4.34, S 2.15
P2: F 4.09, W 3.64, N 3.63
V13: R 3.59, N 3.71, M 3.1
F1: C 4.63, Y 3.41, N 4.61
K24: M 2, S 2.25, A 2.42, Q 2.45
A20: H 2.58, V 2.67
C17: E 2.98, L 2.47
E8: P 2.29, F 1.97
P10: R 3.63, V 3.05
G18: F 2.09, W 3.39, A 2.65
F11: H 5.17, Q 5.04, V 4.25, A 4.43
K15: Q 2.52, L 2.61
N14: T 2.5, G 2.02, Q 3.29, M 2.98
V16: I 2.04, S 2.28, K 2.61
E5: V 2.52, P 3.05, G 1.68, Q 1.4, M 2.35
S23: M 2.39
T6: W 2.65, I 2.82, F 2.23, R 2.63, E 3.47
S22: P 2.67, G 3.07, H 2.55
E3: P 2.15, V 1.99, I 1.86, Q 1.75, G 1.88, L 1.43
K7: M 2.5, H 3.36, V 2.53
R12: K 3.57, S 3.95, E 4.59, P 4.75, I 2.57
S4: V 3.08, Y 2.9

Variants of: B2
Test: as above
Conditions: c terminus: a fixed tail appended

Protein stability index: each site, then its substitutions
Y1: E 4.08, W 3.04, G 3.82, M 1.99, Q 3.35, N 3.73, F 1.58, T 2.88, K 3.46, L 1.5, A 1.86, V 1.29, P 3.04, C 1.56, H 3.7, D 4.53, S 3.7, I 2.04, R 2.96
S11: M 1.93, N 2.73, C 1.97, A 1.34, E 1.75, H 2.18, Y 2.65, K 1.93, D 2.68, P 2.3, L 2.21, V 1.63, I 2.57, W 1.56, G 2.1, R 1.82, Q 1.8, T 1.81
Q6: C 2.07, F 1.93, E 2.95, T 2.8, M 2.49, L 1.55, I 2.27, R 2.63, S 2.19, W 2.03, G 2.52, K 1.85, Y 2.65, V 1.85, N 2.21, A 2.04, P 2.28, D 2.74, H 2.17
Q7: P 2.28, V 1.65, A 1.87, G 2.59, I 2.08, M 2.13, W 3.41, R 1.66, Y 2.53, T 1.82, K 1.61, F 1.52, C 1.94, D 2.79, L 2.11, N 2.23, S 2.89, H 2.42, E 2.52
F5: N 3.47, W 2.19, M 2.22, R 3.15, V 2.82, K 3.17, H 3.65, D 4.05, G 3.31, I 1.7, E 4.52, L 2.65, Q 3.7, T 3.29, A 2.94, Y 2.57, P 2.79, S 3.39, C 2.69
Q9: C 1.4, T 2.19, H 1.95, M 2.32, D 2.6, Y 2.67, I 1.71, S 2.58, W 2.39, A 1.83, K 1.88, E 2.72, P 2.73, L 1.83, N 2.25, V 1.88, R 3.11, G 2.59, F 2.23
V13: R 1.53, G 2.79, N 2.22, L 1.92, T 2.08, W 1.16, C 2.02, S 2.38, K 2.3, Q 2.2, I 2.14, A 2.04, P 2.62, D 2.54, E 3.48, Y 2.21, M 1.9, H 2.48, F 2.07
I4: S 1.94, D 1.47, H 1.85, N 1.61, A 1.98, F 1.8, R 2.05, Y 1.5, K 1.87, G 1.01, M 1.51, T 1.96, Q 1.85, P 1.93, W 2.94, E 1.78, C 1.44, V 2.16, L 2.19
E3: K 1.76, Y 2.39, T 1.52, S 2.11, W 1.68, A 2.23, L 1.79, P 1.69, I 2.29, D 2.18, C 2.13, Q 1.63, G 1.35, F 1.53, H 2.47, V 1.93, R 3.7, N 1.58, M 2.13
Q2: S 1.22, K 2.19, N 2.14, W 2.3, L 1.67, P 2.15, M 1.82, A 1.84, E 3.44, G 1.66, F 1.55, I 1.52, R 1.56, D 2.64, H 1.58, C 2.36, T 2.18, V 1.72, Y 1.72
L8: V 2.09, R 3.03, S 2.58, I 1.97, P 2.06, Q 2.88, K 3.1, F 2.62, W 2.85, A 2.78, G 2.74, D 2.71, Y 2.66, H 3.06, E 3.06, M 2.66, T 3.24, C 2.44, N 2.87
K14: F 2.35, Q 2.36, A 2.1, V 2.18, G 2.6, I 1.86, S 2.1, N 2.99, D 2.77, M 2.37, R 1.94, T 2.25, L 2.44, E 2.92, P 2.19, H 2.04, C 1.97
W12: D 2.78, K 2.7, N 2.81, S 2.55, A 3.07, P 3.48, M 2.42, Q 2.65, E 3.16, I 2.29, R 3.12, C 2.34, H 2.5, G 2.84, L 2.4, T 2.88, F 2.57, Y 2.18, V 2.69
R10: N 2.84, V 2.26, T 1.94, C 1.96, W 1.89, D 2.99, E 2.66, A 2.74, I 2.95, G 3.03, M 2.57, S 2.71, K 2.12, L 2.4, P 2.55, Q 2.35, F 1.78, Y 1.79, H 2.27
